Target: ShAb01 (nurse shark (Ginglymostoma cirratum))
Assay: BLI
Details: both partners purified

B1: SARS-CoV-1 RBD (domain or fragment)
chain: not shown
B1 gave a Kd of 198 nM.
